The test system of data set [1] is HeLa Kyoto. The experiment in a line: solubility change mitosis vs G1/S (difference of NP-40 vs SDS log2 ratios) (log2 ratio difference); higher = more soluble in mitosis.
Data set [2] concerns HeLa Kyoto. Kind of data set: thermal stability score vs G1/S (z-score of summed log2 fold changes over temperatures); higher = more thermally stable than in G1/S.
Data set [3] concerns HeLa Kyoto. The experiment in a line: melting temperature (median over replicates), in situ; higher = more thermally stable.
Data set [4] concerns HeLa Kyoto. The experiment in a line: solubility in G1/S (NP-40 vs SDS abundance) (log2 ratio); higher = more soluble. The following applies: cell cycle stage: G1/S.
Setting [5] is: cell cycle stage: early G1 (4.5 h after nocodazole release).
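Wherever melting temperature (median over replicates), in situ is given: HeLa Kyoto cells synchronized by double thymidine or nocodazole block, proteins quantified by TMT10plex mass spectrometry, three independent biological replicates.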
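Wherever solubility change mitosis vs G1/S (difference of NP-40 vs SDS log2 ratios) is given: synchronized HeLa Kyoto cells (double thymidine block for G1/S, nocodazole release for mitosis), protein amounts in NP-40 versus SDS lysates quantified by mass spectrometry, three biological replicates.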
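Wherever solubility in G1/S (NP-40 vs SDS abundance) is given: HeLa Kyoto cells arrested at G1/S by double thymidine block, proteins quantified by TMT10plex mass spectrometry in mild NP-40 versus SDS extracts, three biological replicates.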
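Wherever thermal stability score vs G1/S (z-score of summed log2 fold changes over temperatures) is given: synchronized HeLa Kyoto cells, proteins quantified by TMT10plex mass spectrometry, three biological replicates, mitosis taken 0.5 h after nocodazole release, G1/S directly after double thymidine block.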

Regarding “MMIHGFQSSHRDFCFGPWKLTASKTHIMKSADVEKLADELHMPSLPEMMFGDNVLRIQHGSGFGIEFNATDALRCVNNYQGMLKVACAEEWQESRTEGEHSKEVIKPYDWTYTTDYKGTLLGESLKLKVVPTTDHIDTEKLKAREQIKFFEEVLLFEDELHDHGVSSLSVKIRVMPSSFFLLLRFFLRIDGVLIRMNDTRLYHEADKTYMLREYTSRESKISSLMHVPPSLFTEPNEISQYLPIKEAVCEKLIFPERIDPNPADSQKSTQVE [TIPRL]”, the “solubility change mitosis (log2)” value in data set [1] is -0.0696. For the same substance, the results for the thermal stability score in data set [2] (setting [5]) and in data set [2] (cell cycle stage: mitosis) were -0.544 and -1.01, respectively. For the same substance, the melting temperature in data set [3] (cell cycle stage: G1/S) turned out to be 50.8 °C; in data set [3] (cell cycle stage: mitosis) it was 51.3 °C. Moreover, the “solubility in G1/S (log2)” value in data set [4] worked out at 0.0228.

As for “MMKFRFRRQGADPQREKLKQELFAFNKTVEHGFPNQPSALAFDPELRIMAIGTRSGAVKIYGAPGVEFTGLHRDAATVTQMHFLTGQGRLLSLLDDSSLHLWEIVHHNGCAHLEEALSFQLPSRPGFDGASAPLSLTRVTVVLLVAASDIAALGTEGSSVFFLDVTTLTLLEGQTLAPGEVLRSVPDDYRCGKALGPVESLQGHLRDPTKILIGYSRGLLVIWNQASQCVDHIFLGNQQLESLCWGRDSSTVVSSHSDGSYAVWSVDAGSFPTLQPTVATTPYGPFPCKAINKILWRNCESGGHFIIFSGGMPRASYGDRHCVSVLRAETLVTLDFTSRIIDFFTVHSTRPEDEFDDPQALAVLLEEELVVLDLQTPGWPAVPAPYLAPLHSSAITCSAHVASVPAKLWARIVSAGEQQSPQPVSSALSWPITGGRNLAQEPSQRGLLLTGHEDGTVRFWDASGVALRPLYKLSTAGLFQTDCEHADSLAQAAEDDWPPFRKVGCFDPYSDDPRLGVQKVALCKYTAQMVVAGTAGQVLVLELSDVPVEQAVSVAIIDLLQDREGFTWKGHERLSPRTGPLPWPAGFQPRVLVQCLPPAAVTAVTLHTEWSLVAFGTSHGFGLFDYQRKSPVLARCTLHPNDSLAMEGPLSRVKSLKKSLRQSFRRIRKSRVSGKKRAANASSKLQEANAQLAEQACPHDVEMTPVQRRIEPRSADDSLSGVVRCLYFADTFLRDGAHHGPTMWAGTNSGSVFAYALEVPAAAVGGEKRPEQAVEAVLGKEVQLMHRAPVVAIAVLDGRGRPLPEPYEASRDLAQAPDMQGGHAVLIASEEQFKVFTLPKVSAKTKFKLTAHEGCRVRKVALATFASVACEDYAETCLACLTNLGDVHVFSVPGLRPQVHYSCIRKEDISGIASCVFTRHGQGFYLISPSEFERFSLSARNITEPLCSLDINWPRDATQASYRIRESPKLSQANGTPSILLAPQSLDGSPDPAHSMGPDTPEPPEAALSPMSIDSATSADTTLDTTGDVTVEDVKDFLGSSEESEKNLRNLAEDEAHACAILIK [LLGL1]”, in data set [1], the “solubility change mitosis (log2)” value is -0.209. In addition, the figures for the thermal stability score in data set [2] (setting [5]) and in data set [2] (cell cycle stage: mitosis) were -0.436 and -0.753, respectively. Also, the melting temperature in data set [3] (cell cycle stage: G1/S) came to 50.9 °C; in data set [3] (cell cycle stage: mitosis), 49.7 °C. Further, the “solubility in G1/S (log2)” value in data set [4] stood at 0.0124.

On to “MMLGPEGGEGFVVKLRGLPWSCSVEDVQNFLSDCTIHDGAAGVHFIYTREGRQSGEAFVELGSEDDVKMALKKDRESMGHRYIEVFKSHRTEMDWVLKHSGPNSADSANDGFVRLRGLPFGCTKEEIVQFFSGLEIVPNGITLPVDPEGKITGEAFVQFASQELAEKALGKHKERIGHRYIEVFKSSQEEVRSYSDPPLKFMSVQRPGPYDRPGTARRYIGIVKQAGLERMRPGAYSTGYGGYEEYSGLSDGYGFTTDLFGRDLSYCLSGMYDHRYGDSEFTVQSTTGHCVHMRGLPYKATENDIYNFFSPLNPVRVHIEIGPDGRVTGEADVEFATHEEAVAAMSKDRANMQHRYIELFLNSTTGASNGAYSSQVMQGMGVSAAQATYSGLESQSVSGCYGAGYSGQNSMGGYD [HNRNPF]”, for which the “solubility change mitosis (log2)” value in data set [1] is -0.0538. Also, the thermal stability score in data set [2] (setting [5]) was determined as 3.58; in data set [2] (cell cycle stage: mitosis), 9.17. Further, the melting temperature in data set [3] (cell cycle stage: G1/S) amounted to 48 °C; in data set [3] (cell cycle stage: mitosis) it was 49 °C. The “solubility in G1/S (log2)” value in data set [4] was -0.0868.

In the case of “MMLSTEGREGFVVKVRGLPWSCSADEVMRFFSDCKIQNGTSGIRFIYTREGRPSGEAFVELESEEEVKLALKKDRETMGHRYVEVFKSNSVEMDWVLKHTGPNSPDTANDGFVRLRGLPFGCSKEEIVQFFSGLEIVPNGMTLPVDFQGRSTGEAFVQFASQEIAEKALKKHKERIGHRYIEIFKSSRAEVRTHYDPPRKLMAMQRPGPYDRPGAGRGYNSIGRGAGFERMRRGAYGGGYGGYDDYGGYNDGYGFGSDRFGRDLNYCFSGMSDHRYGDGGSSFQSTTGHCVHMRGLPYRATENDIYNFFSPLNPMRVHIEIGPDGRVTGEADVEFATHEDAVAAMAKDKANMQHRYVELFLNSTAGTSGGAYDHSYVELFLNSTAGASGGAYGSQMMGGMGLSNQSSYGGPASQQLSGGYGGGYGGQSSMSGYDQVLQENSSDYQSNLA [HNRNPH2]”, the “solubility change mitosis (log2)” value in data set [1] was -0.0078. Further, the thermal stability score in data set [2] (setting [5]) came out at 1.83; in data set [2] (cell cycle stage: mitosis) it was 2.38. In addition, the figures for the melting temperature in data set [3] (cell cycle stage: G1/S) and in data set [3] (cell cycle stage: mitosis) were 45 °C and 45.2 °C, respectively. The “solubility in G1/S (log2)” value in data set [4] is -0.272.

As to MMP15, the “solubility change mitosis (log2)” value in data set [1] was -0.0164. Besides, the thermal stability score in data set [2] (setting [5]) is -0.0989; in data set [2] (cell cycle stage: mitosis), -0.65. Besides, the melting temperature worked out at 54.4 °C in data set [3] (cell cycle stage: G1/S) and 55.3 °C in data set [3] (cell cycle stage: mitosis). For the same substance, the “solubility in G1/S (log2)” value in data set [4] was -0.181.

The values are drawn from the supplement of paper PMC5998384.
